Assay results from article PMC11667226 (Theranostics, 2025).
Like-named read-outs stand apart in the source and are kept apart here. Non-standard residues stand in square brackets, D forms with d. Residues, ends and D or L forms follow the SMILES beside them. *: point of attachment. X1 = CC1(C)C(=CC=CC=CC=CC2=[N+](CCCCCC(=O)*)c3ccc4ccccc4c3C2(C)C)N(CCCCS(=O)(=O)[O-])c2ccc3ccccc3c21; Cha = N[C@@H](CC1CCCCC1)C(=O)O

Settings: for TEAE Mild (Grade 1): No. events / TEAE Mild (Grade 1): No. patients (%) / TEAE Moderate (Grade 2): No. events / TEAE Moderate (Grade 2): No. patients (%) / TEAE Severe (Grade 3): No. events / TEAE Severe (Grade 3): No. patients (%): CTCAE v5.0
Method: ECGs were taken at baseline, 1 hr ± 15 min, and 44 hrs ± 6 h post-injection. Blood samples (including lever and kidney parameters) were sampled at baseline, 12 hrs ± 4 hrs, and 44 hrs ± 6 hrs post-injection. All laboratory analyses were performed by the Department of Biochemistry at Rigshospitalet. AE assessments were graded according to the National Cancer Institute “Common Terminology Criteria for Adverse Events (CTCAE)” version 5.0. There was no data monitoring committee in this trial.

CC(C)C[C@H](NC(=O)[C@H](Cc1ccc(O)cc1)NC(=O)[C@@H](CCCNC(=N)N)NC(=O)[C@@H](CO)NC(=O)[C@H](Cc1ccccc1)NC(=O)[C@H](CC1CCCCC1)NC(=O)[C@H](CC(=O)O)NC(=O)[C@H](CCC(=O)O)NC(=O)[C@H](CCC(=O)O)NC(=O)CCCCC[N+]1=C(C=CC=CC=CC=C2N(CCCCS(=O)(=O)[O-])c3ccc4ccccc4c3C2(C)C)C(C)(C)c2c1ccc1ccccc21)C(=O)N[C@@H](Cc1c[nH]c2ccccc12)C(=O)N[C@@H](CO)C(=O)O [FG001, ICG-Glu-Glu-AE105] (X1-EED[Cha]F[dS][dR]YLWS-OH; N-terminus and C-terminus assumed)
ECG abnormalities (ECGs at baseline, 1 hr and 44 hrs post-injection): No ECG abnormalities | TEAE ALT increased: No. events (FG001 4 mg i.v., N=5): 0 | TEAE ALT increased: No. subjects (%) (FG001 4 mg i.v., N=5): 0 (0.0%) | TEAE AST increased: No. events (FG001 4 mg i.v., N=5): 1 | TEAE AST increased: No. subjects (%) (FG001 4 mg i.v., N=5): 1 (20.0%) | TEAE Blood ALP increased: No. events (FG001 4 mg i.v., N=5): 0 | TEAE Blood ALP increased: No. subjects (%) (FG001 4 mg i.v., N=5): 0 (0.0%) | TEAE Blood bilirubin increased: No. events (FG001 4 mg i.v., N=5): 1 | TEAE Blood bilirubin increased: No. subjects (%) (FG001 4 mg i.v., N=5): 1 (20.0%) | TEAE Blood creatinine increased: No. events (FG001 4 mg i.v., N=5): 0 | TEAE Blood creatinine increased: No. subjects (%) (FG001 4 mg i.v., N=5): 0 (0.0%) | TEAE Dysgeusia: No. events (FG001 4 mg i.v., N=5): 0 | TEAE Dysgeusia: No. subjects (%) (FG001 4 mg i.v., N=5): 0 (0.0%) | TEAE GGT increased: No. events (FG001 4 mg i.v., N=5): 0 | TEAE GGT increased: No. subjects (%) (FG001 4 mg i.v., N=5): 0 (0.0%) | TEAE Hypalbuminaemia: No. events (FG001 4 mg i.v., N=5): 4 | TEAE Hypalbuminaemia: No. subjects (%) (FG001 4 mg i.v., N=5): 4 (80.0%) | TEAE Hyperglycaemia: No. events (FG001 4 mg i.v., N=5): 0 | TEAE Hyperglycaemia: No. subjects (%) (FG001 4 mg i.v., N=5): 0 (0.0%) | TEAE Hypertension: No. events (FG001 4 mg i.v., N=5): 0 | TEAE Hypertension: No. subjects (%) (FG001 4 mg i.v., N=5): 0 (0.0%) | TEAE Hyponatraemia: No. events (FG001 4 mg i.v., N=5): 1 | TEAE Hyponatraemia: No. subjects (%) (FG001 4 mg i.v., N=5): 1 (20.0%) | TEAE Hypotension: No. events (FG001 4 mg i.v., N=5): 0 | TEAE Hypotension: No. subjects (%) (FG001 4 mg i.v., N=5): 0 (0.0%) | TEAE Hypothermia: No. events (FG001 4 mg i.v., N=5): 0 | TEAE Hypothermia: No. subjects (%) (FG001 4 mg i.v., N=5): 0 (0.0%) | TEAE Pneumonia: No. events (FG001 4 mg i.v., N=5): 0 | TEAE Pneumonia: No. subjects (%) (FG001 4 mg i.v., N=5): 0 (0.0%) | TEAE SOC General disorders and administration site conditions: No. events (FG001 4 mg i.v., N=5): 0 | TEAE SOC General disorders and administration site conditions: No. subjects (%) (FG001 4 mg i.v., N=5): 0 (0.0%) | TEAE SOC Infections and infestations: No. events (FG001 4 mg i.v., N=5): 0 | TEAE SOC Infections and infestations: No. subjects (%) (FG001 4 mg i.v., N=5): 0 (0.0%) | TEAE SOC Investigations: No. events (FG001 4 mg i.v., N=5): 2 | TEAE SOC Investigations: No. subjects (%) (FG001 4 mg i.v., N=5): 2 (40.0%) | TEAE SOC Metabolism and nutrition disorders: No. events (FG001 4 mg i.v., N=5): 5 | TEAE SOC Metabolism and nutrition disorders: No. subjects (%) (FG001 4 mg i.v., N=5): 4 (80.0%) | TEAE SOC Nervous system disorders: No. events (FG001 4 mg i.v., N=5): 0 | TEAE SOC Nervous system disorders: No. subjects (%) (FG001 4 mg i.v., N=5): 0 (0.0%) | TEAE SOC Vascular disorders: No. events (FG001 4 mg i.v., N=5): 0 | TEAE SOC Vascular disorders: No. subjects (%) (FG001 4 mg i.v., N=5): 0 (0.0%) | FG001 related TEAEs: No. events (FG001 4 mg i.v., n = 5): 0 | FG001 related TEAEs: No. patients (%) (FG001 4 mg i.v., n = 5): 0 (0%) | SAEs: No. events (FG001 4 mg i.v., n = 5): 0 | SAEs: No. patients (%) (FG001 4 mg i.v., n = 5): 0 (0%) | TEAE: No. events (FG001 4 mg i.v., n = 5): 7 | TEAE: No. patients (%) (FG001 4 mg i.v., n = 5): 4 (80%) | TEAE Mild (Grade 1): No. events (FG001 4 mg i.v., n = 5): 5 | TEAE Mild (Grade 1): No. patients (%) (FG001 4 mg i.v., n = 5): 2 (40.0%) | TEAE Moderate (Grade 2): No. events (FG001 4 mg i.v., n = 5): 2 | TEAE Moderate (Grade 2): No. patients (%) (FG001 4 mg i.v., n = 5): 2 (40.0%) | TEAE Severe (Grade 3): No. events (FG001 4 mg i.v., n = 5): 0 | TEAE Severe (Grade 3): No. patients (%) (FG001 4 mg i.v., n = 5): 0 (0.0%) | TEAE ALT increased: No. events (FG001 16 mg i.v., N=8): 0 | TEAE ALT increased: No. subjects (%) (FG001 16 mg i.v., N=8): 0 (0.0%) | TEAE AST increased: No. events (FG001 16 mg i.v., N=8): 1 | TEAE AST increased: No. subjects (%) (FG001 16 mg i.v., N=8): 1 (12.5%) | TEAE Blood ALP increased: No. events (FG001 16 mg i.v., N=8): 0 | TEAE Blood ALP increased: No. subjects (%) (FG001 16 mg i.v., N=8): 0 (0.0%) | TEAE Blood bilirubin increased: No. events (FG001 16 mg i.v., N=8): 2 | TEAE Blood bilirubin increased: No. subjects (%) (FG001 16 mg i.v., N=8): 2 (25.0%) | TEAE Blood creatinine increased: No. events (FG001 16 mg i.v., N=8): 1 | TEAE Blood creatinine increased: No. subjects (%) (FG001 16 mg i.v., N=8): 1 (12.5%) | TEAE Dysgeusia: No. events (FG001 16 mg i.v., N=8): 1 | TEAE Dysgeusia: No. subjects (%) (FG001 16 mg i.v., N=8): 1 (12.5%) | TEAE GGT increased: No. events (FG001 16 mg i.v., N=8): 0 | TEAE GGT increased: No. subjects (%) (FG001 16 mg i.v., N=8): 0 (0.0%) | TEAE Hypalbuminaemia: No. events (FG001 16 mg i.v., N=8): 5 | TEAE Hypalbuminaemia: No. subjects (%) (FG001 16 mg i.v., N=8): 5 (62.5%) | TEAE Hyperglycaemia: No. events (FG001 16 mg i.v., N=8): 1 | TEAE Hyperglycaemia: No. subjects (%) (FG001 16 mg i.v., N=8): 1 (12.5%) | TEAE Hypertension: No. events (FG001 16 mg i.v., N=8): 1 | TEAE Hypertension: No. subjects (%) (FG001 16 mg i.v., N=8): 1 (12.5%) | TEAE Hyponatraemia: No. events (FG001 16 mg i.v., N=8): 0 | TEAE Hyponatraemia: No. subjects (%) (FG001 16 mg i.v., N=8): 0 (0.0%) | TEAE Hypotension: No. events (FG001 16 mg i.v., N=8): 1 | TEAE Hypotension: No. subjects (%) (FG001 16 mg i.v., N=8): 1 (12.5%) | TEAE Hypothermia: No. events (FG001 16 mg i.v., N=8): 1 | TEAE Hypothermia: No. subjects (%) (FG001 16 mg i.v., N=8): 1 (12.5%) | TEAE Pneumonia: No. events (FG001 16 mg i.v., N=8): 1 | TEAE Pneumonia: No. subjects (%) (FG001 16 mg i.v., N=8): 1 (12.5%) | TEAE SOC General disorders and administration site conditions: No. events (FG001 16 mg i.v., N=8): 1 | TEAE SOC General disorders and administration site conditions: No. subjects (%) (FG001 16 mg i.v., N=8): 1 (12.5%) | TEAE SOC Infections and infestations: No. events (FG001 16 mg i.v., N=8): 1 | TEAE SOC Investigations: No. events (FG001 16 mg i.v., N=8): 4 | TEAE SOC Investigations: No. subjects (%) (FG001 16 mg i.v., N=8): 3 (37.5%) | TEAE SOC Metabolism and nutrition disorders: No. events (FG001 16 mg i.v., N=8): 6 | TEAE SOC Metabolism and nutrition disorders: No. subjects (%) (FG001 16 mg i.v., N=8): 5 (62.5%) | TEAE SOC Nervous system disorders: No. events (FG001 16 mg i.v., N=8): 1 | TEAE SOC Vascular disorders: No. events (FG001 16 mg i.v., N=8): 2 | TEAE SOC Vascular disorders: No. subjects (%) (FG001 16 mg i.v., N=8): 2 (25.0%) | FG001 related TEAEs: No. events (FG001 16 mg i.v., n = 8): 0 | FG001 related TEAEs: No. patients (%) (FG001 16 mg i.v., n = 8): 0 (0%) | SAEs: No. events (FG001 16 mg i.v., n = 8): 0 | SAEs: No. patients (%) (FG001 16 mg i.v., n = 8): 0 (0%) | TEAE: No. events (FG001 16 mg i.v., n = 8): 15 | TEAE: No. patients (%) (FG001 16 mg i.v., n = 8): 8 (100%) | TEAE Mild (Grade 1): No. events (FG001 16 mg i.v., n = 8): 11 | TEAE Mild (Grade 1): No. patients (%) (FG001 16 mg i.v., n = 8): 4 (50.0%) | TEAE Moderate (Grade 2): No. events (FG001 16 mg i.v., n = 8): 4 | TEAE Moderate (Grade 2): No. patients (%) (FG001 16 mg i.v., n = 8): 4 (50.0%) | TEAE Severe (Grade 3): No. events (FG001 16 mg i.v., n = 8): 0 | TEAE Severe (Grade 3): No. patients (%) (FG001 16 mg i.v., n = 8): 0 (0.0%) | TEAE ALT increased: No. events (FG001 36 mg i.v., N=4): 1 | TEAE ALT increased: No. subjects (%) (FG001 36 mg i.v., N=4): 1 (25.0%) | TEAE AST increased: No. events (FG001 36 mg i.v., N=4): 1 | TEAE AST increased: No. subjects (%) (FG001 36 mg i.v., N=4): 1 (25.0%) | TEAE Blood ALP increased: No. events (FG001 36 mg i.v., N=4): 1 | TEAE Blood ALP increased: No. subjects (%) (FG001 36 mg i.v., N=4): 1 (25.0%)
